Assay results as given in the supplement of paper PMC9170038.

Test system: MS2 coat protein
Test: apparent KD of MS2 coat protein; higher = weaker reporter binding
Conditions: Eterna round: R107
Procedure, shortened: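 Titration buffer: 100 mM Tris-HCl pH 7.5, 80 mM KCl, 4 mM MgCl2, without or with constant ligand. Designed RNA switches transcribed on-chip from Illumina sequencing clusters received SNAP-549-labelled MS2 coat protein in twofold steps from 0.7 or 1.5 nM to 3 µM. Apparent KD is the median per design of fits to normalised cluster binding curves.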

[1] = input ligand: theophylline 20 uM
[2] = input ligand: tryptophan 2.4 mM
[3] = input ligand: theophylline 2 mM

| Sequence | apparent KD of MS2 coat protein (input ligand: arginine 13.2 mM) [nM] | apparent KD of MS2 coat protein [1] [nM] | apparent KD of MS2 coat protein [2] [nM] | apparent KD of MS2 coat protein (input ligand: none) [nM] | apparent KD of MS2 coat protein [3] [nM] |
| --- | --- | --- | --- | --- | --- |
| CCUUAACAUGAGGAUCACCCAUGUCUGGAUACCAGAUACAGAUAAAUCCCUUGGCAGCCAAAAUAUGAAAGAAAUAAAAUAAGAA [theeternabot_sameState_MS2_Theo_A_29] | 27.5 | 66.3 | 50.2 |  |  |
| UUAUGCAGGUCGGCCGCCACUACACACAUGAGGAUCACCCAUGUAGUUACUGGGUGAAGUGGCAGUAGGACCGGGACCUGCACAU [Brourdmod13] | 52 | 739 | 465 | 479 | 850 |
| GGGUGGUAGGCGGCCGCCACUGAUUUUCAUUUAUAGAUGACAUGAGGAUCACCCAUGUUUAUGUGCAGGACCGGGCCUGCUGUGG [aaaT] | 102 | 130 | 78.2 | 68 | 137 |
| GUCCAAAGGUCGGCCGCCACUGUAGGAUGUGUUCUUUCACAUGAGGAUCACCCAUGUUGUUAUUAUAGGACCGGGAUUGUAGGAC [39MS split4] | 16.4 | 32.2 |  |  | 21.5 |
| UACAUGAGGAUCACCCAUGUAAGGUGAGAUACCAGUGAUAUGCUACACCCUUGGCAGCUCACGGCUGACUAUCAGCACACAUGUA [Theo A SS t1] | 28.2 | 34.4 | 26.8 |  |  |
| CCGGAGACCUCGGCCGCCACUCUCCAUGAGGAUCUCCCAUGUAACAUGAGGAUCACCCAUGUGCUGAGGACCGGGAGGUCCUCCU [Same State Tryptophan B GF 20] | 18.7 | 16.4 | 20.9 | 13.2 | 17 |
| AAUAUAUAUCACGAACUGUGGUGUAUGUUCCGAGGACCGGUACGGCCGCCACUCGCGUGGUUCCACAUGAGGAUCACCCAUGUUG [XTryp A #8] | 17.3 | 29.4 | 22.5 | 16.8 | 23.2 |
| AUCGUACCUGAUGAUACCAGCAAUUGCUCGUAACAUGAGGAUCACCCAUGUGAUCAGUGAUGCCCUUGGCAGCAUGAUCGGUGCA [Same State - Theophylline B (Freestyle 19)] | 52.8 | 183 | 248 |  |  |
| AGCGAGAUCCGUGAUACCAGCUACAUGAGGAUCACCCAUGUGAGCGCGAAAGUGCUGUGUAGCCCUUGGCAGCACAGUGGAUCUC [#29 Exclusion-TheophyllineB] | 8.84 | 14.6 | 11.3 |  |  |
| UAUCCACAUGAGGAUCACCCAUGUUAGGAAGGAGCGGUGAAUGAACCAGGUAGGUCGCCUAGCUGAGGACUGUCGAUGGAUUCGU [Exclusion - Arginine A (Freestyle 17)] | 13.4 | 28.2 | 20.5 | 18.1 | 24.5 |
| ACAUUAGUUGGCGAUACCAGCUAUAGGCCUUCUGGGCGACAUGAGGAUCACCCAUGUGAUGGCCCUUGGCAGCGCUGAUUGAUGU [SSTheo B #29] | 65.6 | 167 | 182 |  |  |
| GCUGAACAUGAGGAUCACCCAUGUCCGGAUACCAGCGGACCUCAUCGCCCUUGGCAGCCGAACCAACAGCUUGUGGUGUUCACUC [theeternabot_sameState_MS2_Theo_A_10] | 32.2 | 58.2 | 37.2 |  |  |
| AGUGUUAUAACUGAUACCAGACCUUUGCUUAUACAUGAGGAUCACCCAUGUAAAAUGGCUGUCCCUUGGCAGCAGAGAAUACACA [#07 Same State - Theophylline B] | 42.9 | 45.2 | 47.1 |  |  |
| GCAAUACAUGAGGAUCACCCAUGUGCAGAUACCAGAGGUGUAUGCCUCCCUUGGCAGCUGCGACGCUCUGGCAUCUUGUGGGAUG [Same State Theophylline A GF19] | 22.2 | 73.7 | 52 |  |  |
| CGACGAGACCUGGAUACCAGCGACAUGAGGAUCACCCAUGUAUGUGGAUCAGCCAUGAUAUGCCCUUGGCAGCCACCGAGGUCGG [PPPMULLIN] | 7.81 | 20.8 | 12.3 | 11.6 | 31.7 |
| GCACAUGAGGAUCACCCAUGUAUUACUGAAGGAGCGAGACAGAACUCAGGUAGGUCGCAGACGGCGGAAUCGCCGACGACAUGGG [Exclusion Arginine A GF23] | 20.3 | 66.5 | 27.7 | 36.7 | 40.7 |
| ACUCGGUGUUUGUUGCUCCGAGUACGUGAUACCAGUUAAUUUUAUGGCCCUUGGCAGCAUGGGACAUGAGGAUCACCCAUGUUUA [#04 SameState-TheophyllineA] | 125 | 344 | 318 |  |  |
| GGAUGGAACUCGGCCGCCACUGGUGAUCCUAAUGUACAUGAGGAUCACCCAUGUACAUGAGAAGAUAGGACCGGGAGAUAAGGGA [Tryptophan B V4 (+4G)] | 19.9 | 24.3 | 20.7 | 19.3 | 26.3 |
| CUGCCAUGCAGAGAUACCAGUGAGCUCAGAACAUGAGGAUCACCCAUGUAGGUUGCCGAUCACCCUUGGCAGCUCUGCAUGGCAG [*$+%!] | 38.7 | 28.4 | 29.6 | 30.8 | 10.9 |
| GUGGGUUUGCGAAGGAGCGGGUAUGUUUUCUACUGGAUCCUAACAUGAGGAUCACCCAUGUCCCAGGUAGGUCGCGCGGGCUUGG [12.Z] | 49.7 | 81.9 | 56.8 | 215 | 209 |
| GCACCAGGUACGGAUACCAGCUGCCAGCGUUACAUGAGGAUCACCCAUGUGAUCUGAAGUAGCCCUUGGCAGCUGUACCUGGUGC [SSThB NP+V+V2 #4 +-Same Structure] | 96.7 | 207 | 62 |  |  |
| GAACAAGGUUUCUUGUUCGGUCGCUGAGAAGGAGCGCGGUAACCCGCAGGUAGGUCGCUCAGAAAUACAUGAGGAUCACCCAUGU [Anaa] | 17.4 | 26.4 | 17.8 | 18.7 | 21.7 |
| UUUAACGGGCACGAUACCAGCGACAUGAGGAUCACCCAUGUAAACGCGGUGACGGUCUGUUGCCCUUGGCAGCGUGCAAAAUAAU [Zaquarar] | 43 | 157 | 48.5 | 67.6 | 94.3 |
| AUACCUAAUGUUACAUUUUCCUUUUCAGAUACCAGACUUUACGUUGUCCCUUGGCAGCUGUAUCACAUGAGGAUCACCCAUGUUG [JR_SSTheophyA_Sub009] | 17.3 | 20.7 | 17 |  |  |
| UCAAUAAUUAGAUUGUUACAUGUAUCAGAAGGAGCGUGAGUAAUCACAGGUAGGUCGCUGUUAACAUGAGGAUCACCCAUGUUUU [JR_ExcArginiA_Sub009] | 31.2 | 43.6 | 36.8 | 40.9 | 39.2 |
| AUAAUUGGGUUAAUUAGUUUUAGGUCCAGUCGAGGACCGGUACGGCCGCCACUCGUUCCGAGAUACAUGAGGAUCACCCAUGUUA [JR_ExcTryptoA_Sub015] | 17.3 | 34.5 |  |  | 31 |
| AGUCUUGUAGGAAGGAGCGCAUACUUCACAUGAGGAUCACCCAUGUCAAGACGUGAGUCAGUGCAGGUAGGUCGCCUAACUAAGA [Same State - Arginine B (Freestyle 14)] | 18.6 | 28.7 | 18 | 17.3 | 26.3 |
| UCGCCCGGGUCGGCCGCCACUGAGGUGAUAUGACAUGAGGAUCACCCAUGUUGUCAUGUGGAACAUAGGACCGGGACCCGGGCGA [Exclusion - Tryptophan B Attempt #2 (HarryS)] | 15.7 | 47.6 | 17.8 | 18.5 | 19.6 |
| CAGGCCUUGCCCGGUGUUCCGAAAGUGGAAGGAGCGCACAUUGGUGCAGGUAGGUCGCCACAUGAGGAUCACCCAUGUCUAGGCC [Aveatti] | 54.9 | 111 | 50.2 | 20 | 22.5 |
| ACGCGUCAAGAGUAAAAUCCGUCAAGUGAUACCAGCCACAACGUAGGCCCUUGGCAGCACAUGAGGAUCACCCAUGUAAUAAGGA [Gedigerace] | 42.4 | 53.4 | 22.5 | 33.3 | 670 |
